Measured values taken from US20160199524A1, “RADIOSENSITIVITY OF FLUOROPHORES AND USE OF RADIOPROTECTIVE AGENTS FOR DUAL-MODALITY IMAGING” (Immunomedics, Inc., priority 2015, published 2016).
Like-named read-outs stand apart in the source and are kept apart here. *1 amine or outer side, *2 acyl side, *3 side chain or, on linkers, in order; H or OH if unused. Where a SMILES comes first, the peptide text is derived from it. Side-chain parts run from the residue outwards. [ ]: non-standard residue; d: D form. The star is where a group is joined. HSG = histamine succinyl glycyl group, O=C(CCC(=O)NCC(=O)*)NCCc1c[nH]cn1; DOTA = O=C(O)CN1CCN(CC(=O)O)CCN(CC(=O)*)CCN(CC(=O)O)CC1; NH(2-(imidazol-4-yl)ethyl) = c1ncc(CCN*)[nH]1; Suc = O=C(CCC(=O)[*:2])[*:1]

Experiments:
[1] = Stability of Al^18F(IMP467) in human serum or PBS; format: in vitro ADME
Experimental: An aliquot of the HLB purified peptide (˜30 μL) was diluted with 200 μL human serum (previously frozen) and placed in the 37° C. HPLC sample chamber. Aliquots were removed at various time points and analyzed by HPLC.
Optimized conditions for ^18F-labeling of IMP467 were identified. These consisted of eluting ^18F^− with commercial sterile saline (pH 5-7), mixing with 20 nmol of AlCl3 and 40 nmol IMP467 in pH 4 acetate buffer in a total volume of 100 μL, heating to 102° C. for 15 min, and performing SPE separation. High-yield (85%) and high specific activity (115 GBq/μmol) were obtained with IMP467 in a single step, 30-min procedure after a simple solid-phase extraction (SPE) separation without the need for HPLC purification. Al^18F(IMP467) was stable in PBS or human serum, with 2% loss of ^18F after incubation in either medium for 6 h at 37° C.

[2] = Stability of ^18F-labeled IMP449 in human serum at 37° C.
Experimental: Three microliters of a 2 mM solution of Al in a pH 4 acetate buffer was mixed with 15 μL, 1.3 mCi of ^18F. […] […] […] Another aliquot was removed after 1 hr and analyzed by HPLC.

[3] = Radioprotection of 800CW with radical scavengers; format: physicochemical; settings: for radioprotection of 800CW: 20 MBq of ^68Ga, 0.5, 3 and 6 h exposure
Experimental: The radioprotective effect of three common hydroxyl radical scavengers, ethanol, gentisic acid (GA) and ascorbic acid (AA) was tested. […]

[4] = target: somatostatin receptors on AR42J cells (rat); test: apparent IC50; competition with ^111In(DTPA-octreotide) on AR42J cells, 3 h at RT
Sequence of somatostatin receptors on AR42J cells (rat) (P30680 whole entry): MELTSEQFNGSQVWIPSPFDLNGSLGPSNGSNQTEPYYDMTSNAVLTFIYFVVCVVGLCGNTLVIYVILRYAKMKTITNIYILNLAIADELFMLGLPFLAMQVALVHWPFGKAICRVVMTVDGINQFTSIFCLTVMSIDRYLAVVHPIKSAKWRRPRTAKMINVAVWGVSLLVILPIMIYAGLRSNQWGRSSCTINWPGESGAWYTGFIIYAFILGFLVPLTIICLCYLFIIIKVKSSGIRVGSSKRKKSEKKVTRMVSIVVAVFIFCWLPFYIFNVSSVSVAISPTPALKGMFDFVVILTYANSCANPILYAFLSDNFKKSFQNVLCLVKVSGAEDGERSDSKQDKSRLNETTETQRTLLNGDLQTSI

[5] = Effect of heating on fluorescence of 800CW; format: physicochemical; settings: NaAc 0.1 M pH 4.5, 1 h at 95° C.
Experimental: To investigate the effect of heating on the fluorescence of 800CW, 5 μg/mL solutions of the dye in NaAc (0.1 M, pH 4.5) were placed in a heating block at 95° C. for 5, 15, 30, or 60 min. Following, samples were cooled down to room temperature, measured in the plate reader, and the fluorescence of each sample was normalized to a non-heated control.

[6] = IRDye800CW irradiations (radiobleaching); format: physicochemical
Experimental: To assess the radiosensitivity of 800CW, 5 μg/mL aqueous solution of the dye in 0.1 M NaAc buffer pH 4.5 was prepared and mixed with increasing activities of ^68Ga, ^111In, and ^213Bi (1-20 MBq) for a 310 μL final volume. Radioactive solutions were incubated in 1.5 mL Eppendorf tubes at 4° C. in the dark, and 100 μL aliquots taken at 0.5, 6, and 24 h time points for fluorescence measurement. The effect of volume on 800CW's radiosensitivity was determined by incubating 150, 300, 550,800, or 1050 μL of 5 μg/mL buffered dye solution with 20 MBq of ^68Ga. All fluorescence readings were normalized to non-irradiated controls.

[7] = test system: nude mice bearing LS174T human colonic xenografts; test: Biodistribution of ^18F-labeled agents with or without TF2 pretargeting; settings: not pretargeted
Source text: Six-week-old NCr nu-m female nude mice were implanted s.c. with the human colonic cancer cell line, LS174T (ATCC, Manassas, Va.).
Tissues were weighed and counted together with a standard dilution prepared from each of the respective products. Due to the short physical half-life of ^18F, standards were interjected between each group of tissues from each animal. Uptake in the tissues is expressed as the counts per gram divided by the total injected activity to derive the percent-injected dose per gram (% ID/g).

CEA = target: T1, CEA (Homo sapiens, UniProt P06731); test: Immunoreactivity with excess CEA by SE-HPLC; format: binding; settings: 0.74-GBq run
T1 sequence (P06731 35-676): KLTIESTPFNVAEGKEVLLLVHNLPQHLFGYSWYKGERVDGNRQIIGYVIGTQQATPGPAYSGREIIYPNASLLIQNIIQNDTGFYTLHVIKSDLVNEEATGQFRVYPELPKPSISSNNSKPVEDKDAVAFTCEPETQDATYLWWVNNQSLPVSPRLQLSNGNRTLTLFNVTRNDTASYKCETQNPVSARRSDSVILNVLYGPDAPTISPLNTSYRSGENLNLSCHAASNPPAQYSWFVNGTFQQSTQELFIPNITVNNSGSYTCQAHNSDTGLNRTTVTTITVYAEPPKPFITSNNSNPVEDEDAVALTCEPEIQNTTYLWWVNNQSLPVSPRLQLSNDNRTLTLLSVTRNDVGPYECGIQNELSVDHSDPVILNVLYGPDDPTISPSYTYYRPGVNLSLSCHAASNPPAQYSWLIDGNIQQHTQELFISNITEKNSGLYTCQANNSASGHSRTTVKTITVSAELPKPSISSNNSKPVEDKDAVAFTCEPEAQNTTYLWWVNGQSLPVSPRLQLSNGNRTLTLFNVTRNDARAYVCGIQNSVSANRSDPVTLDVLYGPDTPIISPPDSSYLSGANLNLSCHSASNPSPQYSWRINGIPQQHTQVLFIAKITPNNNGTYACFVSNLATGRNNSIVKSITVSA
Experimental: Immunoreactivity of the purified product was analyzed by adding an excess of CEA and separating on SE-HPLC, comparing to a profile of the product alone. The product was also analyzed by RP-HPLC to assess percent-unbound Al^18F(NOTA-MPAEM).

[8] = test system: nude mice bearing Capan-1 human pancreatic cancer xenografts; settings: mouse, in vivo
Experimental: (§3) Nude mice were inoculated subcutaneously with CaPan-1 human pancreatic adenocarcinoma (ATCC Accession No. HTB-79, Manassas, Va.). When tumors were visible, the animals were injected intravenously with 100 μL of the radiolabeled Fab′. […] The animals were necropsied at 3 h post injection, tissues and tumors removed, weighed, and counted by gamma scintillation, together with standards prepared from the injected products. The data are expressed as percent injected dose per gram.

[9] = test system: nude mice bearing Capan-1 human pancreatic cancer xenografts; test: Biodistribution of radiolabeled Fab′; settings: 3 h after injection
Experimental: as §3

[10] = Stability of ^18F-labeled IMP272 in PBS (reverse phase HPLC); format: physicochemical; settings: incubated at room temperature with PBS for ~1 hr
Experimental: ^18F-Labeling of IMP272—A 3 μL aliquot of the aluminum stock solution was placed in a REACTI-VIAL™ and mixed with 50 μL ^18F (as received) and 3 μL of the IMP272 solution. […] The remainder of the peptide solution was incubated at room temperature with 150 μL PBS for ˜1 hr and then examined by reverse phase HPLC.

[11] = test system: nude BALB/c mice with s.c. LS174T tumors; test: PET/CT images, region of interest ratios; format: in vivo
Experimental: (§1) PET images were acquired with an Inveon animal PET/CT scanner (Siemens Preclinical Solutions, Knoxville, Tenn.). PET emission scans were acquired for 15 minutes, preceded by CT scans for anatomical reference (spatial resolution 113 μm, 80 kV, 500 μA, exposure time 300 msec).
(§2) Uptake in the tumor was evaluated quantitatively by drawing regions of interest (ROI), using a 50% threshold of maximum intensity. A region in the abdomen was used as background region.

[12] = PET/CT images, region of interest ratios; format: in vivo, mice; settings: male, BALB/c nude, mouse, iv, total radioactivity, mice with LS174T tumor and inflamed muscle, ^68Ga(IMP288) after TF2
Experimental: as §1, §2

Molecule: C-NETA-succinyl-D-Lys(HSG)-D-Tyr-D-Lys(HSG)-NH2 ({C‑NETA-Suc}-[dK](HSG)-[dY]-[dK](HSG)-NH2) [IMP467]
- breakdown of ^18F-labeled peptide in serum ([1]; human serum, 37° C., five hour incubation): no detectable breakdown

Molecule: C[C@@H](NC(=S)Nc1ccc(CC2CN(CC(=O)O)CCN(CC(=O)O)CCN2CC(=O)O)cc1)C(=O)N[C@H](CCCCNC(=O)CNC(=O)CCC(=O)NCCc1c[nH]cn1)C(=O)N[C@H](Cc1ccc(O)cc1)C(=O)N[C@H](CCCCNC(=O)CNC(=O)CCC(=O)NCCc1c[nH]cn1)C(N)=O (stereo partly drawn) [IMP449, NOTA-benzyl-ITC-D-Ala-D-Lys(HSG)-D-Tyr-D-Lys(HSG)-NH2]
- stability in human serum [2]: 76%
- stability in human serum ([2]; purified, 37° C., at least one hour): 91%

Molecule: O=C1O[C@H]([C@@H](O)CO)C(O)=C1O [AA, ascorbic acid]
- radioprotection against ^111In and ^213Bi induced radiobleaching of 800CW ([3]; 0.1% (w/v) AA): effective radioprotection
- concentrations that completely preserve 800CW fluorescence ([3]; 20 MBq of ^68Ga, longer radiation exposure): 0.001-10 % (w/v)

Molecule: ^115In(DTPA-octreotide) (peptide)
- IC50 [4]: 6.3 nM

Molecule: CC1(C)C(/C=C/C2=C(Oc3ccc(S(=O)(=O)O)cc3)C(=C/C=C3/N(CCCCS(=O)(=O)O)c4ccc(S(=O)(=O)[O-])cc4C3(C)C)/CCC2)=[N+](CCCCCC(=O)O)c2ccc(S(=O)(=O)O)cc21 [800CW]
- fluorescent intensity, % of the initial values [5]: 60%
- change of 800CW fluorescence on exposure to ^68Ga ([6]; 0.1 M NaAc pH 4.5, 30 min exposure, increasing activities): pronounced dose-dependent decrease
- extent of radiobleaching by the three radionuclides, trend ([6]; similar activity level and exposure times): ^68Ga>^111In>^213Bi

Molecule: [18FH] [^18F, reference compound]
- tumor/blood ratio [7]: 6.7±2.7

Molecule: Al^19F(IMP466) (peptide)
- IC50 [4]: 3.6 nM

Molecule: NC(=O)[C@@H](CCCCNC(=O)CNC(=O)CCC(=O)NCCc1c[nH]cn1)NC(=O)[C@@H](Cc1ccc(O)cc1)NC(=O)[C@@H](CCCCNC(=O)CNC(=O)CCC(=O)NCCc1c[nH]cn1)NC(=O)CCC(=O)Nc1ccc(CC(CN2CCN(CC(=O)O)CCN(CC(=O)O)CC2)N(CC(=O)O)CC(=O)O)cc1 (stereo partly drawn) [Al^18F(IMP467)]
- loss of ^18F ([1]; incubation in PBS or human serum for 6 h at 37° C.): 2%

Molecule: O=C(O)c1cc(O)ccc1O [GA, gentisic acid]
- radioprotection of 800CW [3]: both concentration and exposure time dependent

Molecule: CCO [EtOH, ethanol]
- radioprotection of 800CW [3]: both concentration and exposure time dependent

Molecule: Al^18F(NOTA-MPAES)-hMN-14 Fab′: Al^18F(NOTA-MPAEM) conjugated to Fab′ of humanized MN-14 anti-CEACAM5 IgG (labetuzumab)
- shift of activity on SE-HPLC when excess CEA was added (CEA): all of the activity shifted
- T/NT Liver [8]: 0.2 ± 0.04
- T/NT Lung [8]: 0.8 ± 0.5
- T/NT Muscle [8]: 6.7 ± 1.3
- T/NT Scapula [8]: 1.8 ± 0.4
- T/NT Sm. Int. [8]: 1.3 ± 0.1
- T/NT Spleen [8]: 0.3 ± 0.04
- T/NT Stomach [8]: 4.7 ± 1.2
- % ID/g Blood [9]: 0.5 ± 0.1 % ID/g
- % ID/g Capan-1 tumor [9]: 2.8 ± 0.3 % ID/g
- % ID/g Kidney [9]: 216 ± 30.9 % ID/g
- % ID/g Lg. Int. [9]: 1.1 ± 0.4 % ID/g
- % ID/g Liver [9]: 17.5 ± 3.8 % ID/g
- % ID/g Lung [9]: 4.2 ± 1.6 % ID/g
- % ID/g Muscle [9]: 0.4 ± 0.1 % ID/g
- % ID/g Scapula [9]: 1.6 ± 0.4 % ID/g
- % ID/g Sm. Int. [9]: 2.2 ± 0.2 % ID/g
- % ID/g Spleen [9]: 11.3 ± 1.6 % ID/g
- % ID/g Stomach [9]: 0.6 ± 0.1 % ID/g
- T/NT Blood (tumor/blood ratio) [9]: 5.9 ± 1.3
- T/NT Kidney [9]: 0.0 ± 0.0
- T/NT Lg. Int. [9]: 2.8 ± 0.7
- % ID/g Capan-1 tumor ([9]; listed as [Al^18F]-Fab′): 2.8±0.3 % ID/g
- T/NT Blood (tumor/blood ratio) ([9]; listed as [Al^18F]-Fab′): 5.9±1.3

Molecule: DTPA-Gln-Ala-Lys(HSG)-D-Tyr-Lys(HSG)-NH2 [IMP272]
- ^18F still attached to the peptide [10]: 42%
- ^18F unbound [10]: 58%

Molecule: ^69Ga(IMP466) (peptide)
- IC50 [4]: 13 nM

Molecule: NC(=O)[C@@H](CCCCNC(=O)CNC(=O)CCC(=O)NCCc1c[nH]cn1)NC(=O)[C@@H](CCC(=O)O)NC(=O)[C@@H](CCCCNC(=O)CNC(=O)CCC(=O)NCCc1c[nH]cn1)NC(=O)[C@@H](Cc1ccc(O)cc1)NC(=O)CN1CCN(CC(=O)O)CCN(CC(=O)O)CCN(CC(=O)O)CC1 [^68Ga(IMP288), metal not drawn] ({DOTA}-[dY][dK]([Gly-Suc-NH(2-(imidazol-4-yl)ethyl)])[dE][dK]([Gly-Suc-NH(2-(imidazol-4-yl)ethyl)])-NH2)
- tumor-to-background ratio in PET image ([11]; TF2 and ^68Ga(IMP288), 1 h, ROI 50% threshold, abdomen as background): 38.2
- tumor-to-inflamed tissue ratio in PET/CT image ([11]; mice with LS174T tumor and inflamed muscle, ^68Ga(IMP288) after TF2): 5.4
- tissue to tissue ratio at 1 h ([12]; read-out: inflamed muscle-to-background ratio in PET/CT image): 8.9
- tissue to tissue ratio at 1 h ([12]; read-out: tumor-to-background ratio in PET/CT image): 48
